Source: PMC7583906, “Functional Recovery of a GCDH Variant Associated to Severe Deflavinylation—Molecular Insights into Potential Beneficial Effects of Riboflavin Supplementation in Glutaric Aciduria-Type I Patients” (International Journal of Molecular Sciences, 2020)
“And” between values parts separate entries of the source, which are not always exact repeats. Equal entries are not always repeated.

Target: the molecule itself
Test: SEC; Superdex 200 10/300 GL, 10 mM HEPES pH 7.8, 150 mM NaCl, typically 0.5 mg applied; holoprotein (FAD bound) as purified; Gaussian deconvolution of the profile

Protein	stoichiometry N
glutaryl-coenzyme A (CoA) dehydrogenase, wild-type (GCDH-WT) (enzyme, human, human glutaryl-CoA dehydrogenase (GCDH), recombinant; source: E. coli BL21 (DE3), soluble extract incubated overnight with excess FAD, purified (HisTrap HP)) EFDWQDPLVLEEQLTTDEILIRDTFRTYCQERLMPRILLANRNEVFHREIISEMGELGVLGPTIKGYGCAGVSSVAYGLLARELERVDSGYRSAMSVQSSLVMHPIYAYGSEEQRQKYLPQLAKGELLGCFGLTEPNSGSDPSSMETRAHYNSSNKSYTLNGTKTWITNSPMADLFVVWARCEDGCIRGFLLEKGMRGLSAPRIQGKFSLRASATGMIIMDGVEVPEENVLPGASSLGGPFGCLNNARYGIAWGVLGASEFCLHTARQYALDRMQFGVPLARNQLIQKKLADMLTEITLGLHACLQLGRLKDQDKAAPEMVSLLKRNNCGKALDIARQARDMLGGNGISDEYHVIRHAMNLEAVNTYEGTHDIHALILGRAITGIQAFTASK	4
GCDH-p.Val400Met clinical variant (enzyme, human, human glutaryl-CoA dehydrogenase (GCDH), disease variant p.Val400Met of glutaric aciduria type I, recombinant; The assays tell the states apart; also called holo GCDH-p.Val400Met; apo GCDH-p.Val400Met; source: E. coli BL21 (DE3), purified (HisTrap HP); holo form from soluble extract incubated overnight with excess FAD, apo form without the FAD incubation) EFDWQDPLVLEEQLTTDEILIRDTFRTYCQERLMPRILLANRNEVFHREIISEMGELGVLGPTIKGYGCAGVSSVAYGLLARELERVDSGYRSAMSVQSSLVMHPIYAYGSEEQRQKYLPQLAKGELLGCFGLTEPNSGSDPSSMETRAHYNSSNKSYTLNGTKTWITNSPMADLFVVWARCEDGCIRGFLLEKGMRGLSAPRIQGKFSLRASATGMIIMDGVEVPEENVLPGASSLGGPFGCLNNARYGIAWGVLGASEFCLHTARQYALDRMQFGVPLARNQLIQKKLADMLTEITLGLHACLQLGRLKDQDKAAPEMVSLLKRNNCGKALDIARQARDMLGGNGISDEYHMIRHAMNLEAVNTYEGTHDIHALILGRAITGIQAFTASK	4 and 2
